According to patent publication US20210324359A1, “USE OF GRAM-NEGATIVE LYSIN-ANTIMICROBIAL PEPTIDE (AMP) POLYPEPTIDE CONSTRUCTS IN TREATING ENDOCARDITIS” (priority 2020, published 2021):

How the values were obtained:
Format in all cases: cell-based, Pseudomonas aeruginosa
P. aeruginosa = experiment: MIC, modified CLSI broth microdilution in CAA medium without or with […] human serum (Table 4); conditions: for CAA MIC: CAA medium, no human serum; for CAA/HuS MIC: CAA supplemented with […] human serum; on CAA/HuS MIC: CAA supplemented with 2.5% human serum
From the text: 2015. […] Clinical and Laboratory Standards Institute, Wayne, Pa.

[1] = test system: carbepenam-resistant clinical isolate WC-453; experiment: MIC in CAA without or with 25% human serum (Table 5); parameters: CAA MIC: unit not given here; conditions: for CAA/HuS MIC: CAA supplemented with 25% human serum
Experimental: MIC values were determined using a modification of the standard broth microdilution reference method defined by the Clinical and Laboratory Standards Institute (CLSI), CLSI. […] Methods for Dilution Antimicrobial Susceptibility Tests for Bacteria That Grow Aerobically; Approved Standard-10th Edition. Clinical and Laboratory Standards Institute, Wayne, Pa.

[2] = test system: P. aeruginosa strain WC-453; experiment: Time-kill assay in HEPES or CAA with 25% human serum (Tables 7, 8)
Experimental: Exponential phase bacteria were then pelleted and resuspended in 1/5 culture volume of 25 mM HEPES, pH 7.4 before a final adjustment to an optical density corresponding to a McFarland value of 0.5. […] All treatments were incubated at 37° C. with aeration. At time points before the addition of lysin (or buffer control) and at 1 hour and 3 hours intervals thereafter, culture samples were removed for quantitative plating on CAA agar plates.

Molecule	CAA MIC (P. aeruginosa) [µg/mL]	CAA/HuS MIC (P. aeruginosa) [µg/mL]	activity in CAA supplemented with human serum (25%) [1]	CAA MIC [1]	CAA/HuS MIC [1]	bactericidal activity (CFU decrease of 3-Log10, 3 hours after the addition of lysin) ([2]; 10 μg/mL, enumerated lysins in CAA/HuS, general statement for HEPES and CAA/HuS)	HEPES (Log10 CFU/mL), 1 hr ([2]; 25 mM HEPES pH 7.4, lysin 10 μg/ml, 1 hr, WC-453) [Log10 CFU/mL]	HEPES (Log10 CFU/mL), 3 hr ([2]; 25 mM HEPES pH 7.4, lysin 10 μg/ml, 3 hr, WC-453) [Log10 CFU/mL]	CAA/HuS (Log10 CFU/mL), 1 hr ([2]; CAA + 25% human serum, lysin 10 μg/ml, 1 hr, WC-453) [Log10 CFU/mL]	CAA/HuS (Log10 CFU/mL), 3 hr ([2]; CAA + 25% human serum, lysin 10 μg/ml, 3 hr, WC-453) [Log10 CFU/mL]	effect of the structural modification on activity (as assessed by MIC) versus the parent lysin (P. aeruginosa; CAA with and without human serum, parent GN316 or GN37)
GN178: lysin-AMP construct: Esculentin fragment and IGEM linker N-terminal to GN146 lysin (SEQ ID NO: 6) (protein) MPPIFSKLAGKKIKNLLISGLKGGSGSGSGSGSPRTSQRGIDLIKSFEGLRLSAYQDSVGVWTIGYGTTRGVTRYMTITVEQAERMLSNDIQRFEPELDRLAKVPLNQNQWDALMSFVYNLGAANLASSTLLDLLNKGDYQGAADQFPHWVNAGGKRLDGLVKRRAAERALFLEPLS	8000	4000	active	8	1	–	–	–	–	–	–
GN14: lysin obtained from Pseudomonas phage Lull (SEQ ID NO: 124) (protein) NNELPWVAEARKYIGLREDTSKTSHNPKLLAMLDRMGEFSNESRAWWHDDETPWCGLFVGYCLGVAGRYVVREWYRARAWEAPQLTKLDRPAYGALVTFTRSGGGHVGFIVGKDARGNLMVLGGNQSNAVSIAPFAVSRVTGYFWPSFWRNKTAVKSVPFEERYSLPLLKSNGELSTNEA	–	–	active	>128	32	bactericidal activity	<3.7	<3.7	5.7	<3.7	–
GN328: lysin obtained from Pseudomonas protegens (SEQ ID NO: 220) (protein, listed as Pseudomonas protegens) MNTLRHGDRSQAVRSLQKNLNSHGAILVVDGDYGDATEAAVRAYQLKAGLVVDGIAGEKTQTSLVGGDCALLLKNADLVSAAQRLDLPLASVYAVNEVESNGKGFFANGKPAILFERHIMYRQLKTPRYPGDDPAELKRHADELAAQYPAIINPNPGGYAGGPAEHQRLATARLIDDTAALESASWGAFQIMGFHWKRLGYASVQDFVTAMSASEPRQFEAFVRFIETDPALHKALKARKWSDFARQYNGPNYQRNLYDTKLQRAYERHSACSCGQEVPA	–	–	active	8	2	–	–	–	–	–	–
GN218: lysin-AMP construct: IGEM linker and RI12 antimicrobial peptide C-terminal to GN37 lysin (SEQ ID NO: 10) (protein) MTYTLSKRSLDNLKGVHPDLVAVVHRAIQLTPVDFAVIEGLRSVSRQKELVAAGASKTMNSRHLTGHAVDLAAYVNGIRWDWPLYDAIAVAVKAAAKELGVAIVWGGDWTTFKDGPHFELDRSKYGGGSGGGGSGGGSRLKKIGKVLKWI	8000	1000	active	8	1	–	–	–	–	–	very strong activity in the presence of human serum
